What is called Kd is a measure of binding affinity in units of concentration. High values mean lower affinity, low ones higher affinity. What is called koff is the first-order rate constant of dissociation. Usually kon stands for the rate constant with which the complex forms. High values mean faster complex formation, low ones slower complex formation. The IC50 is the concentration that gives 50% inhibition. Low readings indicate greater potency in that assay, high ones weaker potency in that assay. As a reminder, the EC50 is the concentration that produces a half-maximal response. A low value points to greater potency. The term EC50 (read off the curve) denotes the midpoint of the concentration-response curve. Higher therefore signals a less potent agent.

These results are taken from patent US20240059796A1 (SHENZHEN MAJORY BIOTECHNOLOGY, published 2024).

Test [1] concerns the target T1, human TGF-β1 (immobilised on the CM5 chip, Biacore) (human, UniProt P01137 279-390).
T1 construct: also called antigen TGF-β1
Kind of test: SPR (Biacore), human TGF-β1 amine-coupled to CM5, 1:1 fit. As for the experimental part:
The affinity constants of CT101 with human TGF-β1 were measured with a Biacore system for molecular interaction. HBS-EP served as buffer, human TGF-β1 was immobilized on the surface of CM5 chip by Bicaore standard amino coupling. Binding of antibody CT101 to human TGF-β1 was performed, where the concentration of antibody CT101 was 8-250 nM (2 fold dilution), the flow rate was 30 μl/min, the binding duration was 120 s, and the dissociation duration was 880 s. The chip was regenerated using 10 mM glycine, where PH was 2.7, the flow rate was 30 μl/min, and the duration was 120 s. The affinity constants were obtained by data fitting analysis with a 1:1 model. Data was collected with Biacore Control 2.0 software and analyzed using Biacore T200 Evaluation 2.0 software. The kinetics parameters of antibodies CT102 and CAT192 binding to human TGF-β1 are shown in Table 2, and the test results of specific kinetic parameters of antibody CT101 to human TGF-β1 are shown in FIG. 21.
On the technique in general: Surface plasmon resonance follows binding to a sensor surface in real time, without labels.

For test [2], the target named is T2, fusion protein TGF-β1-His (human, UniProt P01137 279-390).
T2 construct: 118 aa: a 112-residue TGF-β1 segment with a C-terminal His6 tag
Kind of test: competitive ELISA, TGF-β1-His coated; competitor human TGFβRII-ECD-Fc-biotin 0.1 µg/ml. The protocol:
(§1) The ELISA plate was coated with TGF-β1-His and incubated at 37° C. for 3 hours. After rinsing the plate, 1% BSA was used for blocking at 37° C. for one hour. After rinsing the plate, serially diluted antibody and human TGFβRII-ECD-Fc-biotin (final concentration 0.1 μg/ml) were added and incubated at room temperature for 2 hours. After rinsing the plate, HRP labeled streptavidin SA-HRP (1:2000) working solution was added and incubated at 37° C. for 30 minutes. After rinsing the plate, TMB developing solution was added to develop for 5 min in a dark place, and termination solution was added to terminate the chromogenic reaction. The ELISA plate was immediately put into an ELISA reader, and the optical wavelength of 450 nm was selected to read the OD value of each well of the ELISA plate. The data was analyzed and processed with SoftMax Pro software.

Test [3] addresses T2, fusion protein TGF-β1-His. Kind of test: indirect ELISA, TGF-β1-His coated. The protocol: as §1, with “blocking” for “blocking at 37° C.”, “antibody was” for “antibody and human TGFβRII-ECD-Fc-biotin (final concentration 0.1 μg/ml) were”, “at 37° C.” for “at room temperature”, “for 60 minutes.” for “for 2 hours.”, “plate, enzyme-labeled donkey anti-human IgG secondary antibody” for “plate, HRP labeled streptavidin SA-HRP (1:2000)”, “5 minutes” for “5 min”
On the technique in general: An ELISA detects its analyte on a solid surface through an enzyme-linked reagent.

Test [4] addresses TGF-β1 (inducer of the TGF-β/Smad reporter signal) (UniProt P01137 279-390, limits assumed). In words: cell-based or functional assay.
For test [5], the target named is T2, fusion protein TGF-β1-His. Kind of test: competitive ELISA, plate coated with TGF-β1-His, antibody titrated against human TGFβRII-ECD-Fc-biotin (0.1 µg/ml), detection with SA-HRP. The protocol:
as §1

Test [6] addresses T2, fusion protein TGF-β1-His. Kind of test: indirect ELISA, plate coated with TGF-β1-His, detection with enzyme-labeled anti-human IgG. The protocol:
as §1, with “blocking” for “blocking at 37° C.”, “antibody was” for “antibody and human TGFβRII-ECD-Fc-biotin (final concentration 0.1 μg/ml) were”, “at 37° C.” for “at room temperature”, “for 60 minutes.” for “for 2 hours.”, “plate, enzyme-labeled donkey anti-human IgG secondary antibody” for “plate, HRP labeled streptavidin SA-HRP (1:2000)”, “5 minutes” for “5 min”

In test [7] the target is T1, human TGF-β1 (immobilised on the CM5 …). Kind of test: SPR (Biacore), human TGF-β1 amine-coupled to CM5, antibody 250 nM, 1:1 fit. As for the experimental part:
The affinity constants of CT101, CT102, CT111, and CT112 with human TGF-β1 were measured with a Biacore molecular interaction meter. HBS-EP served as buffer, human TGF-β1 was immobilized on the surface of CM5 chip by Bicaore standard amino coupling. Binding of antibodies CT101, CT102, CT111, and CT112 to human TGF-β1 was performed, where the concentration of antibodies CT101, CT102, CT111, and CT112 was 250 nM, the flow rate was 30 μl/min, the binding duration was 120 s, and the dissociation duration was 880 s. The chip was regenerated by using 10 mM glycine, where PH was 2.7, the flow rate was 30 μl/min, and the duration was 120 s. The affinity constants were obtained by data fitting analysis with a 1:1 model. Data was collected with Biacore Control 2.0 software and analyzed using Biacore T200 Evaluation 2.0 software. The kinetics parameters of antibodies CT101, CT102, CT111, and CT112 binding to human TGF-β1 are shown in Table 2, and the test results of specific kinetic parameters of antibodies CT101, CT102, CT111, and CT112 binding to human TGF-β1 are shown in FIG. 7.

T2 sequence (P01137 other isoform, or with tags, fused parts or gaps limits assumed): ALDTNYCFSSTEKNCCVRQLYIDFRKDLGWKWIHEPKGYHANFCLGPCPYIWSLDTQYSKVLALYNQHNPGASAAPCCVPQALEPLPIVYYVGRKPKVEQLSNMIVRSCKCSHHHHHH
Sequence of TGF-β1 (inducer of the TGF-β/Smad reporter signal) (P01137 279-390 limits assumed): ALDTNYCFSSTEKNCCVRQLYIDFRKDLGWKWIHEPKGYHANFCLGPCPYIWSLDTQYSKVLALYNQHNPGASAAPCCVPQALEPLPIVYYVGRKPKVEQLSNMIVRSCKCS
T1 sequence (P01137 279-390 limits assumed): as above

B1: anti-TGF-β1 antibody CAT192 (antibody, human IgG4, V domains shown)
VH: EVQLVESGGGVVQPGRSLRLSCAASGFTFSSYGMHWVRQAPGKELEWVAVISYDGSIKYYADSVKGRFTISRDNSKNTLYLQMNSLRAEDTAVYYCARTGEYSGYDTDPQYSWGQGTTVTVSS
VL: EIVLTQSPSSLSASVGDRVTITCRSSQGIGDDLGWYQQKPGKAPILLIYGTSTLQSGVPSRFSGSGSGTDFTLTINSLQPEDFATYYCLQDSNYPLTFGGGTRLEIK
notes: The background section calls CAT192 a human IgG4 monoclonal antibody
B1: in test [1], the Kd came to 0.8 nM, the koff amounted to 2.4e-05 s⁻¹ and the kon stood at 30000 M⁻¹ s⁻¹. In test [2], this molecule yielded an IC50 of 0.105 nM. Further, the EC50 in test [3] is 0.0845 nM. Further, in test [4], the “IC50, TGF-β/Smad luciferase reporter in HEK293-CD4 cells” value was 0.25 nM and the “IC50, TGF-β/Smad luciferase reporter in HEK293 cells” value (shortened to “IC50 … in HEK293 cells”) is about 0.25 nM. Moreover, the “IC50 (read off the curve)” value in test [5] was about 0.09 nM. The “EC50 (read off the curve)” value in test [6] is about 0.08 nM.

B2: bifunctional antibody CT111 (bispecific antibody, human IgG4 S228P, kappa)
light: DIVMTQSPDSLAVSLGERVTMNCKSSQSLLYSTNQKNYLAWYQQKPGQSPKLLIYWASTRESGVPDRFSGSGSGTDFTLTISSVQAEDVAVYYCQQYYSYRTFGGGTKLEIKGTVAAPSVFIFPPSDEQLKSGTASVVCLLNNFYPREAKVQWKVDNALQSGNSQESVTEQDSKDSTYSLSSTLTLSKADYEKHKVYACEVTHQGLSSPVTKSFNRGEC
heavy: QVQLQQSGPEVVKPGASVKMSCKASGYTFTSYVIHWVRQKPGQGLDWIGYINPYNDGTDYDEKFKGKATLTSDTSTSTAYMELSSLRSEDTAVYYCAREKDNYATGAWFAYWGQGTLVTVSSASTKGPSVFPLAPCSRSTSESTAALGCLVKDYFPEPVTVSWNSGALTSGVHTFPAVLQSSGLYSLSSVVTVPSSSLGTKTYTCNVDHKPSNTKVDKRVESKYGPPCPPCPAPEFLGGPSVFLFPPKPKDTLMISRTPEVTCVVVDVSQEDPEVQFNWYVDGVEVHNAKTKPREEQFNSTYRVVSVLTVLHQDWLNGKEYKCKVSNKGLPSSIEKTISKAKGQPREPQVYTLPPCQEEMTKNQVSLWCLVKGFYPSDIAVEWESNGQPENNYKTTPPVLDSDGSFFLYSALTVDKSRWQEGNVFSCSVMHEALHNHYTQKSLSLSLGK
chain: EVQLVESGGGVVQPGRSLRLSCAASGFTFSSYGMHWVRQAPGKELEWVAVISYDGSIKYYADSVKGRFTISRDNSKNTLYLQMNSLRAEDTAVYYCARTGEYSGYDTDPQYSWGQGTTVTVSSGGGGSGGGGSGGGGSEIVLTQSPSSLSASVGDRVTITCRASQGIGDDLGWYQQKPGKAPILLIYGTSTLQSGVPSRFSGSGSGTDFTLTINSLQPEDFATYYCLQDSNYPLTFGGGTRLEIKYGPPCPPCPAPEFLGGPSVFLFPPKPKDTLMISRTPEVTCVVVDVSQEDPEVQFNWYVDGVEVHNAKTKPREEQFNSTYRVVSVLTVLHQDWLNGKEYKCKVSNKGLPSSIEKTISKAKGQPREPQVCTLPPSQEEMTKNQVSLSCAVKGFYPSDIAVEWESNGQPENNYKTTPPVLDSDGSFKLVSRLTVDKSRWQEGNVFSCSVMHEALHNHYTQKSLSLSLGK
Turning to B2, the “IC50 … in HEK293 cells” value in test [4] was about 0.8 nM.

B3: bifunctional antibody CT112 (bispecific antibody, human IgG4 S228P, kappa)
light: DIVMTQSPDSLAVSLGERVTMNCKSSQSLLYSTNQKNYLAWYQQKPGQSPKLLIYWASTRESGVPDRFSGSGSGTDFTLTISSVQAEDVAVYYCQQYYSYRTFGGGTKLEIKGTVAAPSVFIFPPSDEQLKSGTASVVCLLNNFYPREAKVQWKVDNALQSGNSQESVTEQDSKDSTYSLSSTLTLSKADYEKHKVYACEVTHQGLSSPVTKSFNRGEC
heavy: B2 heavy
chain 1: EVQLVESGGGVVQPGRSLRLSCAASGFTFSSYGMHWVRQAPGKELEWVAVISYDGSIKYYADSVKGRFTISRDNSKNTLYLQMNSLRAEDTAVYYCARTGEYSGYDTDPQYSWGQGTTVTVSGGSGTVAAPSVFIFPPSDEQLKSGTASVVCLLNNFYPREAKVQWKVDNALQSGNSQESVTEQDSKDSTYSLSSTLTLSKADYEKHKVYACEVTHQGLSSPVTKSFNRGECSKYGPPCPPCPAPEFLGGPSVFLFPPKPKDTLMISRTPEVTCVVVDVSQEDPEVQFNWYVDGVEVHNAKTKPREEQFNSTYRVVSVLTVLHQDWLNGKEYKCKVSNKGLPSSIEKTISKAKGQPREPQVCTLPPSQEEMTKNQVSLSCAVKGFYPSDIAVEWESNGQPENNYKTTPPVLDSDGSFKLVSRLTVDKSRWQEGNVFSCSVMHEALHNHYTQKSLSLSLGK
chain 2: EIVLTQSPSSLSASVGDRVTITCRSSQGIGDDLGWYQQKPGKAPILLIYGTSTLQSGVPSRFSGSGSGTDFTLTINSLQPEDFATYYCLQDSNYPLTFGGGTRLEIKGSSASTKGPSVFPLAPCSRSTSESTAALGCLVKDYFPEPVTVSWNSGALTSGVHTFPAVLQSSGLYSLSSVVTVPSSSLGTKTYTCNVDHKPSNTKVDKRVES
notes: also called IgG CrossMab
With B3, the “IC50 … in HEK293 cells” value in test [4] was about 1 nM. Also, in test [7], the affinity, expressed as Kd, was 1.97 nM; the koff stood at 5.9e-05 s⁻¹; the kon is 30000 M⁻¹ s⁻¹.
